Source: patent US20250034594A1, “RNA-GUIDED GENOME RECOMBINEERING AT KILOBASE SCALE” (THE BOARD OF TRUSTEES OF THE LELAND STANFORD JUNIOR …, priority 2021, published 2025)

B1: SSAP_172: SEQ ID NO: 341; Staphylococcus pettenkoferi (protein, listed as Staphylococcus pettenkoferi)
chain: ATQKDFKNQISQKETQQKQEVQKKKKGPRQQVSDLLDRMAPEIEKALPNHLSADRMARVAMTAVSSNPKLLECDPKSFIGAVMQSAQLGLEPNTALGEAYLVPYAGKVNFQLSYLGLINLATRSGQYKAIYAHEVYAEDEFRYQYGLHKDLIHKPVDNPKGKPIGYYAVYHLLNGGYDFVYWTTERIQKHAKKYSFAVQKGYQSPWNDEFDAMAKKTVLKDLLKYAPKSIEMNNAVRSDDKQSELSDEGVVIDVTNYDEENGEEK
B2: SSAP_16: SEQ ID NO: 185 (protein)
chain: MAKENYSDPNGKLLNSITTFEVNGEEVKLSGNIIRDYLVSGNAEVTDQEIIMFLQLCKYQKLNPFLNEAYLVKFKNTKGPDKPAQIIVSKEAFMKRAETHEQYDGFEAGVIVERGGEIIELEGAVSLASDKLLGGWAKVFRKDRNRPVSVRISEKEFNKRQSTWNTMPLTMMRKTAVVNAMREAFPDNLGAMYTEEEQGSLQNTETSVQQEIKQNANAEVLDIPSQQNEVPDFKEVREPEHVEMPPIYGEQQSTPPARPY
B3: SSAP_6: SEQ ID NO: 175 (protein)
chain: STALATLAGKLAERVGMDSVDPQELITTLRQTAFKGDASDAQFIALLIVANQYGLNPWTKEIYAFPDKQNGIVPVVGVDGWSRIINENQQFDGMDFEQDNESCTCRIYRKDRNHPICVTEWMDECRREPFKTREGREITGPWQSHPKRMLRHKAMIQCARLAFGFAGIYDKDEAERIVENTAYTAERQPERDITPVNDETMQEINTLLIALDKTWDDDLLPLCSQIFRRDIRASSELTQAEAVKALGFLKQKATEQKVAA
B4: SSAP_184: SEQ ID NO: 353; Streptomyces scabiei (protein, listed as Streptomyces scabiei)
chain: DADRMARIALTLIRKNPDLATCSGESFLGALMTCSQLGFEPGSPTQEAFIVPYKGEATFQLGYQGMVTLFYQHPMASSVKVETVRENDYFEHEEGLEEKLVHRPCKTGPRGKAIAYYSVARLINGGRTFKVMYPAEIEERREKLPSKNSPAWRNSYDEMAKKTVLRNHFKALPKSAELARAMAHDGTVRTDWQPDAIDVPPEYLSEPQRPELGTGSTQ
B5: SSAP_235: SEQ ID NO: 404; Streptomyces sp. adm13(2018) (protein, listed as Streptomyces sp.)
chain: SQIGNEIARQSHSPAAIIEQHKADLAVVAASHVRVDTFARLAVGVLRQNEKLAAAAANNPGSLMSALMTAARLGLEPGTEQFYLRPIKRKGQLEVQGIVGYQGIVELIYNAGAAQSVVVEVVRARDEFAWTPGALDEHRPPRWPGAMKQPHHKVDWFGDRGPLVGAYAYAVMQGGAISKVVVLNRDHIARAKAKSDGADTDYSPWRTDEEAMWLKTAARRLGKWVPTSAEKRTGVIERLDTPPAPLNEIDPDEDDEPIDGELVD
B6: SSAP_262: SEQ ID NO: 431; YqaK Schleiferilactobacillus shenzhenensis LY-73 (protein, listed as Schleiferilactobacillus shenzhenensis)
chain: SAVSESKDLQHVDQLSVLNSAMTAASLNLPINQNLGFFYLVPYKGIAQAQMGYKGYIQLAQRSGQYQRLNAIPVYADEFGSWNPLTEELDYTPHFEDRKASDKPVGYVGFFKLANGFEKTVYWSRKQIEAHRDRFSKSSKSSASPWNTDFDAMALKTVLRNLITKWGPMTTDIQRANDADEGDYKNDLSTDTSEPKDVTPGASLEQFLGETDQQQKPATKPAPKKKAEEAKPNDLKPDVTHDPNEHTEQTSLSDDDLPFD
B7: SSAP_211: SEQ ID NO: 380; unclassified Streptomyces (protein, listed as Streptomyces sp.)
chain: SQIGNAIATRDEGPAAQIEVYRDEYAALVPSHVNADQWVRLAVGAIRGNDDLLKAAGNDIGLFLREMKTAARLGLEPGTEQFYLTPRKSKAHGGRPVIKGIVGYQGIVELIYRAGAASTVIVEAVRQNDVFRYVPGRDDRPVHEIDWFGQDRGPLVGVYAYAVMKDGAVSKVVVLNKARVMELKAKSDSKNSPYSPWNTNEEAMWLKSGVRQLAKWVPTSAEFRRDQLLAHTDTADGVIASVSAPPLPPQSAALEDLDPDDEGPIDGELLDD
B8: SSAP_20: SEQ ID NO: 189; CK3_26380 butyrate-producing bacterium SS3/4 (protein)
chain: ENATAVQQAESQGTQDFSAPVKHNTDFSLGIFGSSDNFLMATQMAKAFASSTIVPKEYQGNFANGLVAMDIANRLKTSPFMVMQNLDVIQGRPAWRATFLIAMINRSKKYDIELQFEEKRDKNGKPYSCTCWTTKDGRKVTGIEVTMDMAEAEGWTKKNGSKWITMPQVMLRYRAASFFSRMNCPELSNGLYTTDEVYEMADSEYKVYNLEDEVKRDLAQNANKEEFVAPPNETAPESESKGSEPLDPAVENQKSGDTPDWMKPETM
modifications: butyrate-producing bacterium SS3/4
B9: SSAP_193: SEQ ID NO: 362; Mesotoga sp. TolDC (protein, listed as Mesotoga sp.)
chain: KASEIASMVKKEDERRNHKPDPLAGIVKNLTSIKGEIANALPDAGITPERMIRIVVTLLRQNKSLAEAAMQNPASLLGAVMMAAQLGLDPTNGLDQCALVPRKGKVCFDIMYEGLVELGYRSDRMESIVARTVYEKDTFSLKYGLNEELVHIPYLDGDPGESKGYYMVGKLKGGGNIIVYMTKEQVHKIRDRYSVAYKAGLSGSRKDSPWFTSEDRMGEKTVVKAGFRWIPKSPIIRTALALDETAREASRLPMRN
B10: SSAP_305: SEQ ID NO: 474 in b312 (Table 9 prints 424); Clostridium akagii (protein, listed as Clostridium akagii)
chain: ATSESLKNQLVNKETRPPKDPFKALVYSAGIKKRFEDMLDKQANGFITSLLNLKQDKLKSCDDFTVLGSALKAAALKLPIDPNLGFAWIIPFKNHGKLEAQFQIGYKGFIQMAQRSGQYKKLNVTEIYEGQLKSFNPLTEEIVLDLDNIKSDLRKINKRYLIVMRMNLLALHLRKISKG

Experiments:
Format in all cases: cell-based
mammalian cells = experiment: Arrayed SSAP library screening, cell viability by live cell counts via flow cytometry
Experimental: (§1) Each SSAP encoding plasmid was tested in duplicate, including a negative control (same plasmid encoding Flag_HA which is not expected to promote gene editing). Transfections were in 96-well plates and transfection efficiency was estimated to be 50%.
(§2) Three days after transfection, mKate positive cells and cell viability were quantified across all replicates, along with positive (original RecT SSAP) and negative (Flag-HA control protein) controls. […] At the same time, the cell viability was measured by live cell counts via flow cytometry, to help quantify the fitness effect of SSAP on mammalian cells.
(§3) SSAP proteins are identified by Uniparc deposit number and SEQ ID NO. Alignment numbers correspond to SSAPs in FIGS. 58, 59, and 60.

gene editing with dCas9 = experiment: Screen of 322 new SSAP proteins, gene editing activity with dCas9 (Table 5); parameters: dCas9 with SSAP activity: scale not given here
In short: (§4)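 Editing screen of 322 newly identified, synthesized SSAPs, each co-used with Cas9 and with dCas9.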

[1] = test system: gene editing with Cas9 and dCas9; experiment: Screen of 322 new SSAP proteins, activity across all experiments (Cas9 and dCas9, Table 5); parameters: scale not given here
In short: as §4

[2] = test system: endogenous genome targets (ACTB, HSP90AA1); experiment: Arrayed SSAP library screening, mKate knock-in assay (editing efficiency); details: average of HSP90 and ACTB, 3 days after transfection; for Editing Efficiency (Normalized, Average, two targets): fold over negative control (Flag_HA); for Editing Efficiency (Absolute, Average, two targets): percent of mKate knock-in
Experimental: Arrayed SSAP library screening on endogenous genome targets (ACTB. HSP90AA1) using mKate knock-in assay.
SSAP-encoding plasmids were purified and quantified.
as §1, §2, §3

gene editing with Cas9 = experiment: Screen of 322 new SSAP proteins, gene editing activity with Cas9 (Table 5); parameters: Cas9 with SSAP activity: scale not given here
In short: as §4

| Molecule | Cell Viability (Average, two targets) (mammalian cells) | dCas9 with SSAP activity (gene editing with dCas9) | dCas9 with SSAP activity (normalized) (gene editing with dCas9) | Activity across all experiments [1] | Editing Efficiency (Normalized, Average, two targets) [2] | Editing Efficiency (Absolute, Average, two targets) [2] | Cas9 with SSAP activity (gene editing with Cas9) | Cas9 with SSAP activity (normalized) (gene editing with Cas9) |
| --- | --- | --- | --- | --- | --- | --- | --- | --- |
| B1 | 0.9046 | −5.287 | −0.724 | −3.822 | 4.239 | 10.4925 | −2.356 | −0.702 |
| B2 | 1.146 | −5.666 | −1.047 | −3.262 | 8.461 | 20.95 | −0.858 | −0.452 |
| B3 | 1.282 | −5.703 | −1.399 | −6.879 | 4.879 | 12.075 | −8.056 | – |
| B4 | 0.7361 | −2.910 | −0.482 | −1.873 | 5.689 | 14.075 | −0.836 | −0.308 |
| B5 | 0.8847 | −5.457 | −1.152 | −5.237 | 4.251 | 10.53 | −5.016 | −0.970 |
| B6 | 1.122 | −6.590 | −1.417 | −4.769 | 3.676 | 9.1025 | −2.947 | −0.511 |
| B7 | 0.3563 | −5.365 | −0.904 | −1.297 | 5.517 | 13.65 | 2.771 | 4.679 |
| B8 | 1.174 | −4.179 | −0.615 | −2.181 | 5.982 | 14.85 | −0.183 | −0.399 |
| B9 | 1.147 | −5.951 | −1.083 | −3.196 | 5.034 | 12.465 | −0.442 | −0.140 |
| B10 | 0.5578 | −6.032 | −1.721 | −2.644 | 4.612 | 11.425 | 0.745 | 0.408 |
